# From paper PMC8346289 (Journal of medicinal chemistry, 2014)
# Target: the molecule itself
# Assay: crystal structure
protein,measurement,value
K47A mutant of human thymidylate synthase (enzyme) MPVAGSELPRRPLPPAAQERDAEPRPPHGELQYLGQIQHILRCGVRADDRTGTGTLSVFGMQARYSLRDEFPLLTTKRVFWKGVLEELLWFIKGSTNAKELSSKGVKIWDANGSRDFLDSLGFSTREEGDLGPVYGFQWRHFGAEYRDMESDYSGQGVDQLQRVIDTIKTNPDDRRIIMCAWNPRDLPLMALPPCHALCQFYVVNSELSCQLYQRSGDMGLGVPFNIASYALLTYMIAHITGLKPGDFIHTLGDAHIYLNHIEPLKIQLQREPRPFPKLRILRKVEKIDDFKAEDFQIEGYNPHPTIKMEMAV,binding result,binds
